Changes are numbered by the printed parent chain. In names and notes the source's numbering stands.
B1: Id_ii_S2_P5E.4_K5.3_C5.2_[C-2A]_[T-1A]_H5.3_A5.1_F5.1_T5.2_[T11A] (ssRNA)
RNA: UUUGAUUAAUAUGAUAUCGUUCUUUCUAAACACUUAUUAAAUUCUUUCUCGAUAUCAUAUUAAUCUUU
B2: Id_ii_S2_P5E.4_K5.3_C5.2_[T-1C]_H5.3_A5.1_F5.1_T5.2_[T11A] (ssRNA)
RNA: B1 RNA with A28C, A29C
B3: Id_ii_S2_P5E.4_K5.3_C5.2_H5.3_A5.1_F5.1_T5.2_[A12T] (ssRNA)
RNA: B1 RNA with A28C, A29U, A40U, A41U
B4: Id_ii_S2_P5E.4_K5.3_C5.2_[C-2A]_[T-1A]_H5.3_A5.1_F5.1_T5.2 (ssRNA)
RNA: B1 RNA with A40U
B5: Id_ii_S2_P5E.4_K5.3_C5.2_H5.3_A5.1_F5.1_T5.2_[T11A]_[A12T] (ssRNA)
RNA: B1 RNA with A28C, A29U, A41U
B6: Id_ii_S2_P5E.4_K5.3_C5.2_[T-1C]_H5.3_A5.1_F5.1_T5.2 (ssRNA)
RNA: B1 RNA with A28C, A29C, A40U
B7: Id_ii_S2_P5E.4_K5.3_C5.2_[C-2A]_H5.3_A5.1_F5.1_T5.2_[A12C] (ssRNA)
RNA: B1 RNA with A29U, A40U, A41C
B8: Id_ii_S2_P5E.4_K5.3_C5.2_[T-1C]_H5.3_A5.1_F5.1_T5.2_[T11C]_[A12G] (ssRNA)
RNA: B1 RNA with A28C, A29C, A40C, A41G
B9: Id_ii_S2_P5E.4_K5.3_C5.2_[C-2A]_H5.3_A5.1_F5.1_T5.2_[T11A] (ssRNA)
RNA: B1 RNA with A29U
B10: Id_ii_S2_P5E.4_K5.3_C5.2_[T-1A]_H5.3_A5.1_F5.1_T5.2_[A12C] (ssRNA)
RNA: B1 RNA with A28C, A40U, A41C
B11: Id_ii_S2_P5E.4_K5.3_C5.2_[T-1A]_H5.3_A5.1_F5.1_T5.2_[T11C]_[A12G] (ssRNA)
RNA: B1 RNA with A28C, A40C, A41G
B12: Id_ii_S2_P5E.4_K5.3_C5.2_[C-2A]_[T-1A]_H5.3_A5.1_F5.1_T5.2_[A12C] (ssRNA)
RNA: B1 RNA with A40U, A41C
B13: Id_ii_S2_P5E.4_K5.3_C5.2_[C-2A]_H5.3_A5.1_F5.1_T5.2_[A12T] (ssRNA)
RNA: B1 RNA with A29U, A40U, A41U
B14: Id_ii_S2_P5E.4_K5.3_C5.2_[T-1G]_H5.3_A5.1_F5.1_T5.2_[T11C] (ssRNA)
RNA: B1 RNA with A28C, A29G, A40C
B15: Id_ii_S2_P5E.4_K5.3_C5.2_[T-1C]_H5.3_A5.1_F5.1_T5.2_[T11G]_[A12C] (ssRNA)
RNA: B1 RNA with A28C, A29C, A40G, A41C
B16: Id_ii_S2_P5E.4_K5.3_C5.2_[T-1A]_H5.3_A5.1_F5.1_T5.2_[T11C] (ssRNA)
RNA: B1 RNA with A28C, A40C
B17: Id_ii_S2_P5E.4_K5.3_C5.2_[T-1C]_H5.3_A5.1_F5.1_T5.2_[T11C] (ssRNA)
RNA: B1 RNA with A28C, A29C, A40C
B18: Id_ii_S2_P5E.4_K5.3_C5.2_H5.3_A5.1_F5.1_T5.2_[T11G]_[A12C] (ssRNA)
RNA: B1 RNA with A28C, A29U, A40G, A41C
B19: Id_ii_S2_P5E.4_K5.3_C5.2_H5.3_A5.1_F5.1_T5.2_[T11C]_[A12T] (ssRNA)
RNA: B1 RNA with A28C, A29U, A40C, A41U
B20: Id_ii_S2_P5E.4_K5.3_C5.2_[C-2A]_H5.3_A5.1_F5.1_T5.2_[A12G] (ssRNA)
RNA: B1 RNA with A29U, A40U, A41G
B21: Id_ii_S2_P5E.4_K5.3_C5.2_[T-1C]_H5.3_A5.1_F5.1_T5.2_[T11C]_[A12C] (ssRNA)
RNA: B1 RNA with A28C, A29C, A40C, A41C
B22: Id_ii_S2_P5E.4_K5.3_C5.2_[C-2A]_H5.3_A5.1_F5.1_T5.2_[T11C]_[A12C] (ssRNA)
RNA: B1 RNA with A29U, A40C, A41C
B23: Id_ii_S2_P5E.4_K5.3_C5.2_[T-1A]_H5.3_A5.1_F5.1_T5.2_[T11A]_[A12T] (ssRNA)
RNA: B1 RNA with A28C, A41U
B24: Id_ii_S2_P5E.4_K5.3_C5.2_H5.3_A5.1_F5.1_T5.2_[A12C] (ssRNA)
RNA: B1 RNA with A28C, A29U, A40U, A41C
B25: Id_ii_S2_P5E.4_K5.3_C5.2_[T-1G]_H5.3_A5.1_F5.1_T5.2_[A12C] (ssRNA)
RNA: B1 RNA with A28C, A29G, A40U, A41C
B26: Id_ii_S2_P5E.4_K5.3_C5.2_[T-1G]_H5.3_A5.1_F5.1_T5.2 (ssRNA)
RNA: B1 RNA with A28C, A29G, A40U
B27: Id_ii_S2_P5E.4_K5.3_C5.2_[T-1G]_H5.3_A5.1_F5.1_T5.2_[A12T] (ssRNA)
RNA: B1 RNA with A28C, A29G, A40U, A41U
B28: Id_ii_S2_P5E.4_K5.3_C5.2_[C-2A]_H5.3_A5.1_F5.1_T5.2_[T11C]_[A12T] (ssRNA)
RNA: B1 RNA with A29U, A40C, A41U
B29: Id_ii_S2_P5E.4_K5.3_C5.2_[T-1G]_H5.3_A5.1_F5.1_T5.2_[T11A]_[A12C] (ssRNA)
RNA: B1 RNA with A28C, A29G, A41C
B30: Id_ii_S2_P5E.4_K5.3_C5.2_[C-2A]_H5.3_A5.1_F5.1_T5.2 (ssRNA)
RNA: B1 RNA with A29U, A40U
B31: Id_ii_S2_P5E.4_K5.3_C5.2_[C-2A]_H5.3_A5.1_F5.1_T5.2_[T11C]_[A12G] (ssRNA)
RNA: B1 RNA with A29U, A40C, A41G
B32: Id_ii_S2_P5E.4_K5.3_C5.2_[C-2A]_H5.3_A5.1_F5.1_T5.2_[T11G]_[A12C] (ssRNA)
RNA: B1 RNA with A29U, A40G, A41C
B33: Id_ii_S2_P5E.4_K5.3_C5.2_[C-2A]_H5.3_A5.1_F5.1_T5.2_[T11C] (ssRNA)
RNA: B1 RNA with A29U, A40C
B34: Id_ii_S2_P5E.4_K5.3_C5.2_[T-1C]_H5.3_A5.1_F5.1_T5.2_[A12C] (ssRNA)
RNA: B1 RNA with A28C, A29C, A40U, A41C
B35: Id_ii_S2_P5E.4_K5.3_C5.2_[T-1A]_H5.3_A5.1_F5.1_T5.2_[T11C]_[A12T] (ssRNA)
RNA: B1 RNA with A28C, A40C, A41U
B36: Id_ii_S2_P5E.4_K5.3_C5.2_[T-1C]_H5.3_A5.1_F5.1_T5.2_[A12T] (ssRNA)
RNA: B1 RNA with A28C, A29C, A40U, A41U
B37: Id_ii_S2_P5E.4_K5.3_C5.2_[T-1G]_H5.3_A5.1_F5.1_T5.2_[T11C]_[A12T] (ssRNA)
RNA: B1 RNA with A28C, A29G, A40C, A41U
B38: Id_ii_S2_P5E.4_K5.3_C5.2_[T-1A]_H5.3_A5.1_F5.1_T5.2 (ssRNA)
RNA: B1 RNA with A28C, A40U
B39: Id_ii_S2_P5E.4_K5.3_C5.2_[C-2A]_H5.3_A5.1_F5.1_T5.2_[T11A]_[A12C] (ssRNA)
RNA: B1 RNA with A29U, A41C
B40: Id_ii_S2_P5E.4_K5.3_C5.2_H5.3_A5.1_F5.1_T5.2_[T11A]_[A12C] (ssRNA)
RNA: B1 RNA with A28C, A29U, A41C
B41: Id_ii_S2_P5E.4_K5.3_C5.2_[C-2A]_H5.3_A5.1_F5.1_T5.2_[T11A]_[A12T] (ssRNA)
RNA: B1 RNA with A29U, A41U
B42: Id_ii_S2_P5E.4_K5.3_C5.2_H5.3_A5.1_F5.1_T5.2 (ssRNA)
RNA: B1 RNA with A28C, A29U, A40U
B43: Id_ii_S2_P5E.4_K5.3_C5.2_H5.3_A5.1_F5.1_T5.2_[T11C]_[A12C] (ssRNA)
RNA: B1 RNA with A28C, A29U, A40C, A41C
B44: Id_ii_S2_P5E.4_K5.3_C5.2_[C-2A]_[T-1A]_H5.3_A5.1_F5.1_T5.2_[A12T] (ssRNA)
RNA: B1 RNA with A40U, A41U
B45: Id_ii_S2_P5E.4_K5.3_C5.2_[T-1A]_H5.3_A5.1_F5.1_T5.2_[A12T] (ssRNA)
RNA: B1 RNA with A28C, A40U, A41U
B46: Id_ii_S2_P5E.4_K5.3_C5.2_H5.3_A5.1_F5.1_T5.2_[T11C] (ssRNA)
RNA: B1 RNA with A28C, A29U, A40C
B47: Id_ii_S2_P5E.4_K5.3_C5.2_[T-1A]_H5.3_A5.1_F5.1_T5.2_[T11C]_[A12C] (ssRNA)
RNA: B1 RNA with A28C, A40C, A41C

These binders were tested against T1, PUF4 RNA-binding domain (Saccharomyces cerevisiae, UniProt P25339 537-888) (assay: Mg; RNA-MaP; 20 mM Na-HEPES pH 7.4, 30 mM KOAc, 0.75 mM MgCl2, 0.1% Tween-20, 5% glycerol, 0.1 mg/mL BSA, 2 mM DTT; 25 C; 0.0125-409.6 nM protein). Details: tags: N-His6-TEV cleaved; C-SNAP kept, Cy3B-labelled; label: tethered on chip by stalled RNA polymerase.
T1 sequence: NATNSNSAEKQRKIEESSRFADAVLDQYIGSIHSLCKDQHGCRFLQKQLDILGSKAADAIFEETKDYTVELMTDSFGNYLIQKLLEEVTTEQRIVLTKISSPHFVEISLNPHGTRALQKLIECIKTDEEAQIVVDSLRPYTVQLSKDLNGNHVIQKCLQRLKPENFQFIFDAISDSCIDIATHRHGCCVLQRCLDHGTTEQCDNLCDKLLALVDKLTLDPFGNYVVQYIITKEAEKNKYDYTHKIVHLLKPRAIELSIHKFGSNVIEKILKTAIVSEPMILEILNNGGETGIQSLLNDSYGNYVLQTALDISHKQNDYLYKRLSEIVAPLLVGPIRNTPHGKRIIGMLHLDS

| Binder | Kd [nM] |
| --- | --- |
| UCUCUUUGUUUUAUUAUCUCUU (ssRNA) [Ia_S1_P5E.1_K5.1_C5.1_H5.1_[A4T]_A5.1_F5.1_T5.1] | 24.7 |
| UCUCUUUGUAUUCUGAUCUCUU (ssRNA) [Ib_S1_P5E.1_K5.1_C5.1_H5.1_A5.1_[A7C]_F5.1_[T9G]_T5.1] | 60.1 |
| UCUCUUUGUAUAAUCAUCUCUU (ssRNA) [Ic_S1_P5E.1_K5.1_C5.1_H5.1_A5.1_[T6A]_F5.1_[T9C]_T5.1] | 19.7 |
| UCUCUUUGUAUCAUAAUCUCUU (ssRNA) [Ib_S1_P5E.1_K5.1_C5.1_H5.1_A5.1_[T6C]_F5.1_[T9A]_T5.1] | 2.4 |
| UCUCUUUGUAUAAUAAUCUCUU (ssRNA) [Ib_S1_P5E.1_K5.1_C5.1_H5.1_A5.1_[T6A]_F5.1_[T9A]_T5.1] | 1.68 |
| UCUCUUUGUAUCAUCAUCUCUU (ssRNA) [Ib_S1_P5E.1_K5.1_C5.1_H5.1_A5.1_[T6C]_F5.1_[T9C]_T5.1] | 15.5 |
| B1 | > 2300 |
| B2 | > 2300 |
| B3 | 2240 |
| B4 | 875 |
| B5 | > 2300 |
| B6 | 651 |
| B7 | 131 |
| B8 | > 2300 |
| B9 | 208 |
| B10 | > 2300 |
| B11 | > 2300 |
| B12 | > 2300 |
| B13 | 97.8 |
| B14 | > 2300 |
| B15 | > 2300 |
| B16 | > 2300 |
| B17 | > 2300 |
| B18 | > 2300 |
| B19 | > 2300 |
| B20 | 1310 |
| B21 | > 2300 |

| Binder | Kd [nM] |
| --- | --- |
| B22 | 110 |
| B23 | > 2300 |
| B24 | > 2300 |
| B25 | > 2300 |
| B26 | 831 |
| B27 | > 2300 |
| B28 | 117 |
| B29 | > 2300 |
| B30 | 674 |
| B31 | 674 |
| B32 | 902 |
| B33 | 136 |
| B34 | > 2300 |
| B35 | > 2300 |
| B36 | 1720 |
| B37 | > 2300 |
| B38 | 591 |
| B39 | 161 |
| B40 | > 2300 |
| B41 | 129 |
| B42 | 548 |
| B43 | > 2300 |
| B44 | > 2300 |
| B45 | > 2300 |
| B46 | > 2300 |
| B47 | > 2300 |
